Experiments:
Format in all cases: cell-based, human
[1] = test system: Dok-1; test: SH2-precipitation (SH2C-RasGAP-GST) and Dok-1 blot of lysates from CD4+ T cells incubated with zanolimumab; conditions: SH2-precipitate; for amount of precipitated Dok-1 after inhibitor pre-treatment: cells pre-incubated with inhibitor before zanolimumab exposure, FIG. 3D
Description: (§1) FIG. 3 illustrates results from CD4^+ T cells incubated with zanolimumab or a human immunoglobulin negative control. Cell lysates were CD4-precipitated (A), SH2-precipitated (B, D) or used as whole lysate (C). FIG. 3A: Two CD4-precipitates were submitted to a kinase assay (upper two panels). Blots were probed with antibodies to p56^Ick (top panel), the p56^Ick substrate α-casein (second panel), Y-394 phosphorylated p56^Ick (third panel), p56^Ick (fourth panel) or CD4 (bottom panel). The numbers below the blots represent densitometric values normalized for p56^Ick loading. FIG. 3B: Blots with SH2-precipitate were incubated with antibodies to Dok-1 (top panel) or GST (bottom panel). The numbers below the blots represent densitometric values normalized for GST loading. FIG. 3C: Proteins in whole cell lysate were separated by SDS-PAGE and blotted. Membranes were incubated with antibodies to phosphorylated SHIP-1 (top panel) or SHIP-1 regardless of phosphorylation status (bottom panel). The numbers below the blots represent densitometric values normalized for SHIP-1 loading. FIG. 3D: Before zanolimumab exposure, cells were pre-incubated with Src kinase inhibitors PP2 or damnacanthal (DAM). Blots were incubated with antibodies for Dok-1 (top panel) or GST (bottom panel). The numbers below the blots represent densitometric values normalized for GST loading. Results for the experiments shown here are representative of 4 independent experiments.
The activation of inhibitory adaptor molecules in T cells presented in FIG. 3 were obtained with CD4^+ T cells isolated as described in example 1. CD4^+ T cells (3×10E7 cells) were incubated with zanolimumab and, when appropriate, pre-incubated with Src kinase inhibitors PP2 or damnacanthal (Merck Biosciences, Nottingham, UK) before exposure to zanolimumab. Cell lysates were incubated with CD4-precipitating antibody and antibody-bound proteins were precipitated with protein-G sepharose. […] Proteins were detected with an HRP-conjugated secondary antibody, visualized by ECL and quantified using a phosphor-imager.

[2] = test system: SHIP-1; test: Whole cell lysate blot for phosphorylated SHIP-1 in CD4+ T cells incubated with zanolimumab; conditions: FIG. 3C
Description: as §1, with “FIG. 3D: Before zanolimumab exposure, cells were pre-incubated with Src kinase inhibitors PP2 or damnacanthal (DAM). Blots were incubated with antibodies for Dok-1 (top panel) or GST (bottom panel). The numbers below the blots represent densitometric values normalized for GST loading. Results for the experiments shown here are representative of 4 independent experiments.” left out
The activation of inhibitory adaptor molecules in T cells presented in FIG. 3 were obtained with CD4^+ T cells isolated as described in example 1. […] Proteins were detected with an HRP-conjugated secondary antibody, visualized by ECL and quantified using a phosphor-imager.

[3] = test system: CD4^+ T cells; test: Western blotting of T-cell signaling molecules in CD4+ T cells incubated with zanolimumab and stimulated with immobilized CD3 monoclonal antibody (OKT3)
Description: FIG. 2 illustrates results of Western blotting of cell lysates prepared from CD4^+ T cells stimulated with CD3 monoclonal antibody and zanolimumab. CD4^+ T cells were incubated with HuMax-CD4 and then stimulated with CD3 monoclonal antibody (OKT3) immobilized onto latex beads. Proteins in duplicate cell lysate samples were separated by 7-15% gradient gel SDS-PAGE and were transferred onto blotting membranes by electrophoresis. One membrane was incubated with a phosphotyrosine specific antibody, stripped and then re-probed with TCRζ and LAT specific antibodies (FIG. 2A). The other was incubated with antibodies to the phosphorylated form of specific proteins, stripped and then re-probed with ZAP-70 (2B), Erk1/2, p38 and AKT antibodies (2C). The numbers below the blots represent densitometric values normalized for loading relative to values observed after 2 min of CD3-stimulation in the absence of HuMax-CD4. Results for the experiments shown here are representative of 4 independent experiments.
The effect on T-cell signaling molecules upon T-cell activation presented in FIG. 2 were obtained with CD4^+ T cells isolated from peripheral blood from healthy donors. CD4^+ T cells were isolated using enrichment RosetteSep cocktail (Stemcell Technologies Inc, Canada) and separated by lymphoprep (Axis Shield, Poc AS, Norway) density centrifugation. CD4^+ T cells (10^7 cells) were incubated with zanolimumab and then stimulated with CD3 monoclonal antibody (OKT3, available from Orthoclone, Pharmacy, UMC, Utrecht) immobilized onto latex beads. Cell were lysed using lysis buffer (1% Nonidet P-40, 20 mM Tris-HCl, pH 7.4, 150 mM NaCl, 2 mM EGTA, 1 mM Na3VO4, 10 mM NaF, 10 mM sodium pyrophosphate and protease inhibitors (Roche Molecular Biochemicals, Sussex, UK)). Proteins in duplicate cell lysate samples were separated by 7-15% gradient gel SDS-PAGE and transferred onto blotting membranes by electrophoresis. Membranes were incubated with antibodies for specific tyrosine-phosphorylated proteins, stripped and then re-probed with antibodies recognizing the specific proteins regardless of their phosphorylation status. Proteins were detected with an HRP-conjugated secondary antibody, visualized by ECL and quantified using a phosphor-imager.

CC(C)(C)n1nc(-c2ccc(Cl)cc2)c2c(N)ncnc21 [PP2]
amount of precipitated Dok-1 after inhibitor pre-treatment [1]: reduced amount of precipitated Dok-1

COc1c(C=O)c(O)cc2c1C(=O)c1ccccc1C2=O [damnacanthal]
amount of precipitated Dok-1 after inhibitor pre-treatment [1]: reduced amount of precipitated Dok-1

B1: zanolimumab (antibody, listed as Homo sapiens, V domains shown)
VH: QVQLQQWGAGLLKPSETLSLTCAVYGGSFSGYYWSWIRQPPGKGLEWIGEINHSGSTNYNPSLKSRVTISVDTSKNQFSLKLSSVTAADTAVYYCARVINWFDPWGQGTLVT
VL: DIQMTQSPSSVSASVGDRVTITCRASQDISSWLAWYQHKPGKAPKLLIYAASSLQSGVPSRFSGSGSGTDFTLTISSLQPEDFATYYCQQANSFPYTFGQGTKLEIK
modifications: anti CD4 Vh; anti CD4 VL
notes: anti-CD4 monoclonal human antibody (GenMab, Denmark), same as 6G5 of WO97/13852
phosphorylation of SHIP-1 [2]: induces phosphorylation
phosphorylation of Dok-1 ([1]; FIG. 3B): induces phosphorylation
tyrosine-phosphorylation of intracellular proteins following TCR stimulation ([3]; TCR stimulation via immobilized CD3 monoclonal antibody, FIG. 2A): generalized inhibition
phosphorylation of LAT (36-38 kDa) ([3]; after CD3 stimulation, FIG. 2A): inhibited
phosphorylation of p21 and p23 phosphorylated isomers of the TCR-ζ chain ([3]; after CD3 stimulation, FIG. 2A): markedly inhibited
phosphorylation of ZAP-70 ([3]; after CD3 stimulation, FIG. 2B): inhibition
AKT/PKB downstream signaling pathway ([3]; after CD3 stimulation, FIG. 2C): inhibits
Erk1/2 downstream signaling pathway ([3]; after CD3 stimulation, FIG. 2C): inhibits
p38 serine/threonine downstream signaling pathway ([3]; after CD3 stimulation, FIG. 2C): inhibits
inhibition of the very earliest T-cell activation events ([3]; summary of Example 1, densitometry relative to CD3 stimulation without antibody): about 50%

From patent US9309315B2, “Therapy with CD4 binding peptides and radiation” (GENMAB A/S, priority 2005, dated 2016)
